{"source": "the supplement of paper PMC10567573", "parents": {"B1": {"name": "TRIM55 (parent)", "chain": "YLPTRGGTTMASGGRFRCPSCRHE"}, "B2": {"name": "SOAT1 (parent)", "chain": "VYYIFERLCAPLFRNIKQEPFSAR"}}, "data": [{"variants_of": "B1", "assay": "protein stability index of a GFP-peptide fusion (GPS, HEK-293T) (PSI 1-6); higher = more stable", "details": "c terminus: a fixed tail appended", "values": [{"variant": "YLPTRGGTTMASGGRFRCTSCRHE", "note": "[P19T]", "protein stability index": 2.18}, {"variant": "YLPTRGGTTMASPGRFRCPSCRHE", "note": "[G13P]", "protein stability index": 1.44}, {"variant": "YLPTRGGTTMASWGRFRCPSCRHE", "note": "[G13W]", "protein stability index": 1.12}, {"variant": "YLPTRGGTTMASRGRFRCPSCRHE", "note": "[G13R]", "protein stability index": 1}, {"variant": "YLPSRGGTTMASGGRFRCPSCRHE", "note": "[T4S]", "protein stability index": 2.1}, {"variant": "YLPLRGGTTMASGGRFRCPSCRHE", "note": "[T4L]", "protein stability index": 2.73}, {"variant": "YLPTEGGTTMASGGRFRCPSCRHE", "note": "[R5E]", "protein stability index": 2.4}, {"variant": "YLPTHGGTTMASGGRFRCPSCRHE", "note": "[R5H]", "protein stability index": 1.32}, {"variant": "YLPTIGGTTMASGGRFRCPSCRHE", "note": "[R5I]", "protein stability index": 1.98}, {"variant": "YLPTRGFTTMASGGRFRCPSCRHE", "note": "[G7F]", "protein stability index": 1.26}, {"variant": "YLPTRGTTTMASGGRFRCPSCRHE", "note": "[G7T]", "protein stability index": 2.33}, {"variant": "YLPTRGQTTMASGGRFRCPSCRHE", "note": "[G7Q]", "protein stability index": 2.24}, {"variant": "YLPTRGGTTMASGGRFRCPSCRME", "note": "[H23M]", "protein stability index": 1.52}, {"variant": "YLPTRGGTTMASGGRFRCPSCRCE", "note": "[H23C]", "protein stability index": 3.34}, {"variant": "YLPTRGGTTMASGGRFRTPSCRHE", "note": "[C18T]", "protein stability index": 3.74}, {"variant": "YLPTRGGTTMASGGRFRVPSCRHE", "note": "[C18V]", "protein stability index": 2.71}, {"variant": "YLPTRGGTTMASGGRFRCPSERHE", "note": "[C21E]", "protein stability index": 4.03}, {"variant": "YLPTRGGTTMASGGRFRCPSHRHE", "note": "[C21H]", "protein stability index": 3}, {"variant": "YLPTRGGTTMNSGGRFRCPSCRHE", "note": "[A11N]", "protein stability index": 1.65}, {"variant": "YLPTRGGTTMYSGGRFRCPSCRHE", "note": "[A11Y]", "protein stability index": 3.34}, {"variant": "YLPTRGGTTMISGGRFRCPSCRHE", "note": "[A11I]", "protein stability index": 1.05}, {"variant": "YLNTRGGTTMASGGRFRCPSCRHE", "note": "[P3N]", "protein stability index": 2.29}, {"variant": "YLRTRGGTTMASGGRFRCPSCRHE", "note": "[P3R]", "protein stability index": 3.49}, {"variant": "YLPTRGGTTMASGGRFRCPSCRHY", "note": "[E24Y]", "protein stability index": 2.55}, {"variant": "YLPTRGGTTMASGGRFRCPSCRHM", "note": "[E24M]", "protein stability index": 1.6}, {"variant": "YLPTRGGTTMASGGRFRCPSCRHA", "note": "[E24A]", "protein stability index": 1.59}, {"variant": "YLPTRGGTTMASGGRFRCPSCRHG", "note": "[E24G]", "protein stability index": 1.06}, {"variant": "YLPTRGGTTMASGGRFRCPSCRHQ", "note": "[E24Q]", "protein stability index": 3.06}, {"variant": "YLPTRGGTTMASGGRFRCPSCRHV", "note": "[E24V]", "protein stability index": 2.29}, {"variant": "YLPTRGGTTMASGGRVRCPSCRHE", "note": "[F16V]", "protein stability index": 2.71}, {"variant": "YLPTREGTTMASGGRFRCPSCRHE", "note": "[G6E]", "protein stability index": 1.67}, {"variant": "YLPTRLGTTMASGGRFRCPSCRHE", "note": "[G6L]", "protein stability index": 1.76}, {"variant": "YLPTRNGTTMASGGRFRCPSCRHE", "note": "[G6N]", "protein stability index": 1.21}, {"variant": "YLPTRQGTTMASGGRFRCPSCRHE", "note": "[G6Q]", "protein stability index": 2.15}, {"variant": "VLPTRGGTTMASGGRFRCPSCRHE", "note": "[Y1V]", "protein stability index": 1.89}, {"variant": "DLPTRGGTTMASGGRFRCPSCRHE", "note": "[Y1D]", "protein stability index": 2.15}, {"variant": "MLPTRGGTTMASGGRFRCPSCRHE", "note": "[Y1M]", "protein stability index": 1.67}, {"variant": "YLPTRGGNTMASGGRFRCPSCRHE", "note": "[T8N]", "protein stability index": 1.98}, {"variant": "YLPTRGGMTMASGGRFRCPSCRHE", "note": "[T8M]", "protein stability index": 4.36}, {"variant": "YLPTRGGTTMASGGKFRCPSCRHE", "note": "[R15K]", "protein stability index": 2.05}, {"variant": "YLPTRGGTTMASGGCFRCPSCRHE", "note": "[R15C]", "protein stability index": 2.02}, {"variant": "YLPTRGGTTMASGGTFRCPSCRHE", "note": "[R15T]", "protein stability index": 2.53}, {"variant": "YFPTRGGTTMASGGRFRCPSCRHE", "note": "[L2F]", "protein stability index": 2.46}, {"variant": "YLPTRGGTTMAVGGRFRCPSCRHE", "note": "[S12V]", "protein stability index": 2.42}, {"variant": "YLPTRGGTTMAYGGRFRCPSCRHE", "note": "[S12Y]", "protein stability index": 1.28}, {"variant": "YLPTRGGTTMAHGGRFRCPSCRHE", "note": "[S12H]", "protein stability index": 2.29}, {"variant": "YLPTRGGTTMACGGRFRCPSCRHE", "note": "[S12C]", "protein stability index": 1.41}, {"variant": "YLPTRGGTTMASGGRFRCPPCRHE", "note": "[S20P]", "protein stability index": 2.39}, {"variant": "YLPTRGGTTMASGGRFRCPHCRHE", "note": "[S20H]", "protein stability index": 2.13}, {"variant": "YLPTRGGTTMASGGRFRCPQCRHE", "note": "[S20Q]", "protein stability index": 1.8}, {"variant": "YLPTRGGTTMASGGRFRCPRCRHE", "note": "[S20R]", "protein stability index": 2.04}, {"variant": "YLPTRGGTTMASGGRFRCPMCRHE", "note": "[S20M]", "protein stability index": 1.04}, {"variant": "YLPTRGGTTMASGCRFRCPSCRHE", "note": "[G14C]", "protein stability index": 3.76}, {"variant": "YLPTRGGTTEASGGRFRCPSCRHE", "note": "[M10E]", "protein stability index": 1.97}, {"variant": "YLPTRGGTTVASGGRFRCPSCRHE", "note": "[M10V]", "protein stability index": 1.65}, {"variant": "YLPTRGGTTYASGGRFRCPSCRHE", "note": "[M10Y]", "protein stability index": 1.89}, {"variant": "YLPTRGGTTMASGGRFRCPSCDHE", "note": "[R22D]", "protein stability index": 2.9}, {"variant": "YLPTRGGTTMASGGRFRCPSCSHE", "note": "[R22S]", "protein stability index": 3.2}, {"variant": "YLPTRGGTEMASGGRFRCPSCRHE", "note": "[T9E]", "protein stability index": 2.66}, {"variant": "YLPTRGGTNMASGGRFRCPSCRHE", "note": "[T9N]", "protein stability index": 2.01}]}, {"variants_of": "B2", "assay": "protein stability index of a GFP-peptide fusion (GPS, HEK-293T) (PSI 1-6); higher = more stable", "details": "c terminus: a fixed tail appended", "values": [{"variant": "VYYIFERLCAPLFFNIKQEPFSAR", "note": "[R14F]", "protein stability index": 2.56}, {"variant": "VYYIFERLCAPLFKNIKQEPFSAR", "note": "[R14K]", "protein stability index": 2.46}, {"variant": "VYYIFERLCAPLFPNIKQEPFSAR", "note": "[R14P]", "protein stability index": 2.33}, {"variant": "VYYIFERLCAPLFENIKQEPFSAR", "note": "[R14E]", "protein stability index": 1.5}, {"variant": "VYYIFERLCAPLFINIKQEPFSAR", "note": "[R14I]", "protein stability index": 2.04}, {"variant": "VYYIFERLCVPLFRNIKQEPFSAR", "note": "[A10V]", "protein stability index": 3.16}, {"variant": "VYYIFERLCSPLFRNIKQEPFSAR", "note": "[A10S]", "protein stability index": 2.39}, {"variant": "VYYIFERLCLPLFRNIKQEPFSAR", "note": "[A10L]", "protein stability index": 3.17}, {"variant": "VYYIFERLCNPLFRNIKQEPFSAR", "note": "[A10N]", "protein stability index": 3.54}, {"variant": "VYYIFERLCTPLFRNIKQEPFSAR", "note": "[A10T]", "protein stability index": 2.74}, {"variant": "VYYIFERLCRPLFRNIKQEPFSAR", "note": "[A10R]", "protein stability index": 1.53}, {"variant": "VYYIFERLCAPLFRNIDQEPFSAR", "note": "[K17D]", "protein stability index": 1.76}, {"variant": "VYYIFERLCAPLFRNIMQEPFSAR", "note": "[K17M]", "protein stability index": 2.78}, {"variant": "VYYIFERLCAPLFRNIFQEPFSAR", "note": "[K17F]", "protein stability index": 1.74}, {"variant": "VYYIFERLCAPLFRNIEQEPFSAR", "note": "[K17E]", "protein stability index": 3.03}, {"variant": "VYYIFERLCAPLFRNIRQEPFSAR", "note": "[K17R]", "protein stability index": 2.04}, {"variant": "VYYIFERLCAPLFRNINQEPFSAR", "note": "[K17N]", "protein stability index": 2.87}, {"variant": "VYYIFERLCAELFRNIKQEPFSAR", "note": "[P11E]", "protein stability index": 1.76}, {"variant": "VYYIFERLCADLFRNIKQEPFSAR", "note": "[P11D]", "protein stability index": 1.87}, {"variant": "VYYIFERLCALLFRNIKQEPFSAR", "note": "[P11L]", "protein stability index": 1.89}, {"variant": "VYYIFERLCAALFRNIKQEPFSAR", "note": "[P11A]", "protein stability index": 1.17}, {"variant": "VYYIFERLCAILFRNIKQEPFSAR", "note": "[P11I]", "protein stability index": 2.89}, {"variant": "VYYIFERLCAWLFRNIKQEPFSAR", "note": "[P11W]", "protein stability index": 2.77}, {"variant": "VYYIFERLCAHLFRNIKQEPFSAR", "note": "[P11H]", "protein stability index": 3.92}, {"variant": "VYYIFERLCANLFRNIKQEPFSAR", "note": "[P11N]", "protein stability index": 1.86}, {"variant": "VYYIFERLCAVLFRNIKQEPFSAR", "note": "[P11V]", "protein stability index": 2.39}, {"variant": "VYYIFERLCAPLFRNIKQEPPSAR", "note": "[F21P]", "protein stability index": 2.26}, {"variant": "VYYIFERLCAPLFRNIKQEPWSAR", "note": "[F21W]", "protein stability index": 3.02}, {"variant": "VYYIFERLCAPLFRNIKQEPISAR", "note": "[F21I]", "protein stability index": 2.94}, {"variant": "VYYIFERLCAPLFRNIKQEPRSAR", "note": "[F21R]", "protein stability index": 2.74}, {"variant": "VYYIFERLCAPLFRNIKQEPCSAR", "note": "[F21C]", "protein stability index": 1.99}, {"variant": "VYYIFERLCAPLFRNIKQEPYSAR", "note": "[F21Y]", "protein stability index": 2.9}, {"variant": "VYYIFERLCAPLFRNCKQEPFSAR", "note": "[I16C]", "protein stability index": 2.46}, {"variant": "VYYIFERLCAPLFRNGKQEPFSAR", "note": "[I16G]", "protein stability index": 2.33}]}]}
